The record followed here is patent publication US20140288007A1.

Data set [1] has as its target RgpB (mature Arg-gingipain purified from P. gingivalis HG66) (Porphyromonas gingivalis) (UniProt P95493). The data set is described as follows: enzyme inhibition kinetics (non-competitive, Ki′), chromogenic substrate BapNA, secondary plot of Vmax observed against inhibitor concentration.
Data set [2] addresses Whole cell W50 (proteolytic activity on BapNa substrate). The data set is described as follows: cell-based or functional assay.
For a further data set, the target named is caspase 3. The data set is described as follows: cell-based or functional assay.
Data set [3] deals with RgpB (mature Arg-gingipain purified from P. gingivalis HG66) (Porphyromonas gingivalis) (UniProt P95493). The data set is described as follows: cell-based or functional assay.
The next data set deals with papain (UniProt P00784). The data set is described as follows: cell-based or functional assay.
The target of data set [4] is Kgp on P. gingivalis W50 whole cells (Lys-specific activity, GPKNa substrate) (Porphyromonas gingivalis) (UniProt Q51817). In words: cell-based or functional assay.
Data set [5] deals with T1, recombinant RgpB propeptide, P95493.
T1 chain: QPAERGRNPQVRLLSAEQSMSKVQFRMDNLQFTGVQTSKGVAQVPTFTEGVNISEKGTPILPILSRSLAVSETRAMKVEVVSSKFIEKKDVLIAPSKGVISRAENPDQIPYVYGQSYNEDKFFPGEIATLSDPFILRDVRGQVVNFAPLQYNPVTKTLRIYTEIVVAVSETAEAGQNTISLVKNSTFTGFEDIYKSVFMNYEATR

Sequence of UniProt P00784 (P00784 134-345 limits assumed): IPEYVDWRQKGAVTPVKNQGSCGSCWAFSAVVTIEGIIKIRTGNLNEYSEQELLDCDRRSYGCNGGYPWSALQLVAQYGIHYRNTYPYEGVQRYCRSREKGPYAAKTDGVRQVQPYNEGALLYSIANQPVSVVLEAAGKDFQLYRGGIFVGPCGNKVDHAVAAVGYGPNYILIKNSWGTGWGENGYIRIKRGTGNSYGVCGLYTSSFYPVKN

Turning to “recombinant RgpB propeptide (from UniProt P95493 25-229)”, the Ki in data set [1] worked out at 11.8 nM. In data set [2], this molecule came in with a % Proteolytic Activity (whole cells, BapNa; inhibitor 40 mg/L) of 68% and a % Proteolytic Activity (whole cells, BapNa; inhibitor 80 mg/L) of 59%. In the data set with caspase 3, the % Proteolytic Activity (Ac-DEVD-pNa 200 uM; inhibitor 100 mg/L) stood at 129%. The molecule also came in with an inhibition of RgpB activity, DQ BSA, 2 h incubation in data set [3] of 50%. The molecule also returned a % Proteolytic Activity (BapNa; inhibitor 40 mg/L) with papain of 68%.
Regarding “recombinant Kgp propeptide (from UniProt Q51817 25-1732)”, the % Proteolytic Activity (Ac-DEVD-pNa 200 uM; inhibitor 100 mg/L) with caspase 3 was found to be 121%. In data set [4], this molecule registered a % Proteolytic Activity (whole cells, GPKNa; inhibitor 40 mg/L) of 65% and a % Proteolytic Activity (whole cells, GPKNa; inhibitor 80 mg/L) of 40%. Moreover, in data set [3], the % Proteolytic Activity (BapNa; inhibitor 50 mg/L) came to 105%. This molecule also came in with a % Proteolytic Activity (BapNa; inhibitor 40 mg/L) with papain of 88%.

B1: RgpB (mature Arg-gingipain purified from P. gingivalis HG66) (protein)
chain: YTPVEEKENGRMIVIVPKKYEEDIEDFVDWKNQRGLRTEVKVAEDIASPVTANAIQQFVKQEYEKEGNDLTYVLLVGDHKDIPAKITPGIKSDQVYGQIVGNDHYNEVFIGRFSCESKEDLKTQIDRTIHYERNITTEDKWLGQALCIASAEGGPSADNGESDIQHENIIANLLTQYGYTKIIKCYDPGVTPKNIIDAFNGGISLANYTGHGSETAWGTSHFGTTHVKQLTNSNQLPFIFDVACVNGDFLYNVPCFAEALMRAQKDGKPTGTVAIIASTINQSWASPMRGQDEMNEILCEKHPNNIKRTFGGVTMNGMFAMVEKYKKDGEKMLDTWTVFGDPSLLVRTLVPTKMQVTAPANISASAQTFEVACDYNGAIATLSDDGDMVGTAIVKDGKAIIKLNESIADETNLTLTVVGYNKVTVIKDVKVEGTSIADVANDKPYTVAVSGKTITVESPAAGLTIFDMNGRRVATAKNRMVFEAQNGVYAVRIATEGKTYTEKVIVK
Consider B1, for which, in data set [5], the “RgpB proteolytic activity, DQ-BSA fluorescent substrate, 11 h time course” value was “Addition of 10 mg/L (0.44 µM) or 20 mg/L (0.88 µM) RgpB propeptide resulted in near total inhibition of RgpB proteolytic activity”.

Broadly, the Ki is a measure of affinity in units of concentration, obtained from inhibition or displacement. The low end stands for higher affinity, the high end for lower affinity.
